Test results published in US9187525B2, “Methods of treating ophthalmic diseases using NPR-B agonists” (Shire Orphan Therapies GmbH, dated 2015).
Numbered stars: 1 amine (or outer) side, 2 acyl side, 3 side chain; on linkers, the order of the positions; unused ones are H or OH. Square brackets hold non-standard residues; d marks the D form. Ends that are not written are not given here. * marks the point of attachment. Tap(2Me) = (2S,4R)-4-(dimethylamino)pyrrolidine-2-carboxylic acid, CN(C)[C@@H]1C[C@@H](C(=O)[*:2])N([*:1])C1; Ebe = (R)-2-amino-3-(methylsulfanyl)propanoic acid, CSC[C@H](N[*:1])C(=O)[*:2]; 6059 = 3-(Octane-1-sulfinyl)-propionic acid, CCCCCCCCS(=O)CCC(=O)*; 6072‑OH = rac-7-hydroxy-dodecanoic acid, CCCCCC(O)CCCCCC(=O)*; Pro(trans-4-NH2) = O=C([C@@H]1C[C@@H](N[*:3])CN1[*:1])[*:2]; 6071‑OH = rac-6-hydroxy-decanoic acid, CCCCC(O)CCCCC(=O)*; 6057 = 3-Octylsulfanyl-propionic acid, CCCCCCCCSCCC(=O)*; 6058 = 7-Butylsulfanyl-heptanoic acid, CCCCSCCCCCCC(=O)*; Sni = (S)-nipecotic acid, O=C([C@H]1CCCN([*:1])C1)[*:2]; 6056 = (2S)-2-octylcyclopropanecarboxylic acid; Hyp = O=C(O)[C@@H]1C[C@@H](O)CN1; NMeF = CN[C@@H](Cc1ccccc1)C(=O)O; 4Pal = N[C@@H](Cc1ccncc1)C(=O)O; NMeL = CN[C@@H](CC(C)C)C(=O)O; Lauroyl = CCCCCCCCCCCC(=O)*; Decanoyl = CCCCCCCCCC(=O)*; 3Amb = NCc1cccc(C(=O)O)c1; Octanoyl = CCCCCCCC(=O)*; FrL = not defined here; Hexanoyl = CCCCCC(=O)*; Oct = not defined here

B1: JAL-1251 (peptide)
peptide: Octanoyl-AFLL[Pro(trans-4-NH2)]DRI-NH2
modifications: not fully specified (some residues); printed as Occ-ala-Phe-leu-Leu-Tap-Asp-Arg-Ile-NH2
B2: JAL-1242 (peptide)
peptide: 6058-FRL[Hyp][NMeL]DRI-NH2
modifications: not fully specified (some residues); printed as 6058-Phe-arg-Leu-Hyp-Nml-Asp-Arg-Ile-NH2
B3: JAL-1241 (peptide)
peptide: 6057-FRL[Hyp][NMeL]DRI-NH2
modifications: not fully specified (some residues); printed as 6057-Phe-arg-Leu-Hyp-Nml-Asp-Arg-Ile-NH2
B4: JAL-1249 (peptide)
peptide: Octanoyl-AFGL[Pro(trans-4-NH2)]LDRI-NH2
modifications: not fully specified (some residues); printed as Occ-ala-Phe-Gly-Leu-Tap-Leu-Asp-Arg-Ile-NH2
B5: JAL-1257 (peptide)
peptide: Octanoyl-[Sni][4Pal]LL[Hyp][NMeL]DRI-NH2
modifications: not fully specified (some residues); printed as Occ-Sni-Ppa-leu-Leu-Hyp-Nml-Asp-Arg-Ile-NH2
B6: JAL-1246 (peptide)
peptide: Lauroyl-FRL[Hyp]LDRI-NH2
modifications: not fully specified (some residues); printed as 832-Phe-arg-Leu-Hyp-Leu-Asp-Arg-Ile-NH2
B7: JAL-1255 (peptide)
peptide: Octanoyl-[Sni]FRL[Hyp][NMeL]DRI-NH2
modifications: not fully specified (some residues); printed as Occ-Sni-Phe-arg-Leu-Hyp-Nml-Asp-Arg-Ile-NH2
B8: JAL-1260 (peptide)
peptide: {6072‑OH}-FRL[Hyp][NMeL]DRI-NH2
modifications: not fully specified (some residues); printed as (6072-OH)-Phe-arg-Leu-Hyp-Nml-Asp-Arg-Ile-NH2
B9: JAL-1259 (peptide)
peptide: {6071‑OH}-FRL[Hyp][NMeL]DRI-NH2
modifications: not fully specified (some residues); printed as (6071-OH)-Phe-arg-Leu-Hyp-Nml-Asp-Arg-Ile-NH2
B10: JAL-1250 (peptide)
peptide: Octanoyl-AFRL[Pro(trans-4-NH2)]LDRI-NH2
modifications: not fully specified (some residues); printed as Occ-ala-Phe-arg-Leu-Tap-Leu-Asp-Arg-Ile-NH2
B11: JAL-1240 (peptide)
peptide: 6056-FRL[Hyp][NMeL]DRI-NH2
modifications: not fully specified (some residues); printed as 6056-Phe-arg-Leu-Hyp-Nml-Asp-Arg-Ile-NH2
B12: JAL-1243 (peptide)
peptide: 6059-FRL[Hyp][NMeL]DRI-NH2
modifications: not fully specified (some residues); printed as 6059-Phe-arg-Leu-Hyp-Nml-Asp-Arg-Ile-NH2
B13: JAL-1262 (peptide)
peptide: Octanoyl-AFGL[Tap(2Me)]LDRI-NH2
modifications: not fully specified (some residues); printed as Occ-ala-Phe-Gly-Leu-Tap(2Me)-Leu-Asp-Arg-Ile-
B14: JAL-1252 (peptide)
peptide: Octanoyl-AFSL[Hyp][NMeL]DRI-NH2
modifications: not fully specified (some residues); printed as Occ-ala-Phe-ser-Leu-Hyp-Nml-Asp-Arg-Ile-NH2
B15: JAL-1254 (peptide)
peptide: Octanoyl-[Sni]FKL[Hyp][NMeL]DRI-NH2
modifications: not fully specified (some residues); printed as Occ-Sni-Phe-lys-Leu-Hyp-Nml-Asp-Arg-Ile-NH2
B16: JAL-1261 (peptide)
peptide: Decanoyl-FRL[Hyp][NMeL]DRI-NH2
modifications: not fully specified (some residues); printed as 5587-Phe-arg-Leu-Hyp-Nml-Asp-Arg-Ile-NH2
B17: JAL-1256 (peptide)
peptide: Octanoyl-[Sni]XLL[Hyp][NMeL]DRI-NH2
modifications: not fully specified (some residues); printed as Occ-Sni-Mpa-leu-Leu-Hyp-Nml-Asp-Arg-Ile-
B18: JAL-1253 (peptide)
peptide: Octanoyl-[Sni]FSL[Hyp][NMeL]DRI-NH2
modifications: not fully specified (some residues); printed as Occ-Sni-Phe-ser-Leu-Hyp-Nml-Asp-Arg-Ile-NH2
B19: JAL-1244 (peptide)
peptide: Lauroyl-[NMeF]RL[Hyp][NMeL]DRI-NH2
modifications: not fully specified (some residues); printed as 832-Nmf-arg-Leu-Hyp-Nml-Asp-Arg-Ile-NH2
B20: JAL-1245 (peptide)
peptide: Lauroyl-FLL[Hyp][NMeL]DRI-NH2
modifications: not fully specified (some residues); printed as 832-Phe-leu-Leu-Hyp-Nml-Asp-Arg-Ile-NH2
B21: JAL-0543 (peptide)
peptide: Hexanoyl-[3Amb]FGLKLDRIS[Ebe]-NH2
SMILES: CCCCCC(=O)NCc1cccc(C(=O)N[C@@H](Cc2ccccc2)C(=O)NCC(=O)N[C@@H](CC(C)C)C(=O)N[C@@H](CCCCN)C(=O)N[C@@H](CC(C)C)C(=O)N[C@@H](CC(=O)O)C(=O)N[C@@H](CCCNC(=N)N)C(=O)N[C@H](C(=O)N[C@@H](CO)C(=O)N[C@@H](CSC)C(N)=O)[C@@H](C)CC)c1

Molecular target: T1, natriuretic peptide receptor-B (human)
T1 chain: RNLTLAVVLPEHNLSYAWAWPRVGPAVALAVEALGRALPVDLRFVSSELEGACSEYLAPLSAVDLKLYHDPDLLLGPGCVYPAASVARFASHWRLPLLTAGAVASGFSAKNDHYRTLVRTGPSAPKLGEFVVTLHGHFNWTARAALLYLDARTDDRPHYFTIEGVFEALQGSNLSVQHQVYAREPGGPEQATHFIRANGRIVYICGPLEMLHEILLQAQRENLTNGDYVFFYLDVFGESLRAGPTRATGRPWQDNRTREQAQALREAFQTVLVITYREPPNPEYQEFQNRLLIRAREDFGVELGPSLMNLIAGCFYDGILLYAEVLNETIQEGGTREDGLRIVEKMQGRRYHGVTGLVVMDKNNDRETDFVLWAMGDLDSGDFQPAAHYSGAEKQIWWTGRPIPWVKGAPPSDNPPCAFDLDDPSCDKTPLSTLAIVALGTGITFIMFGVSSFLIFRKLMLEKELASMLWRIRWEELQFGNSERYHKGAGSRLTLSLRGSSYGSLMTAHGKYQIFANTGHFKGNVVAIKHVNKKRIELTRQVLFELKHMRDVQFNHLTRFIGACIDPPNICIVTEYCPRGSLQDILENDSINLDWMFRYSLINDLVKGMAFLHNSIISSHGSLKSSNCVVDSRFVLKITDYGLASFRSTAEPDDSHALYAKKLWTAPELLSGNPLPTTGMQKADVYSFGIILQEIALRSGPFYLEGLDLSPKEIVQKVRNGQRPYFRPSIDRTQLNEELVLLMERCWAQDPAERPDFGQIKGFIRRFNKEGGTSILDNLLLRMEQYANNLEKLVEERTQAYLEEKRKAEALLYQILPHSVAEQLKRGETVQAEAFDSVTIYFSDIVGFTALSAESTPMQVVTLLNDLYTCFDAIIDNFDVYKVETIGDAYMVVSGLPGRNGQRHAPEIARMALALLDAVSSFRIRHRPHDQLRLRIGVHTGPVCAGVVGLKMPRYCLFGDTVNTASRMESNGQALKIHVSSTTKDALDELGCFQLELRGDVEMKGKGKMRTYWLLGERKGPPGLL
Assay: cell-based or functional assay

| Binder | EC50 group, cGMP in GTM-3 cells [µM] |
| --- | --- |
| B1 | ≤ 1 |
| B2 | ≤ 5 |
| B3 | ≤ 5 |
| B4 | ≤ 1 |
| B5 | ≤ 15 |
| Hexanoyl-G[dA]FGLKLDRI-NH2 [JAL-0631] | ≤ 15 |
| B6 | ≤ 15 |
| B7 | ≤ 1 |
| B8 | ≤ 5 |
| B9 | ≤ 15 |
| B10 | ≤ 1 |
| B11 | ≤ 5 |
| B12 | ≤ 5 |
| B13 | ≤ 5 |
| B14 | ≤ 1 |
| B15 | ≤ 1 |
| B16 | ≤ 15 |
| B17 | ≤ 15 |
| B18 | ≤ 5 |
| [Oct][Sni][FrL][Hyp]LDRI-NH2 (reading uncertain; also: printed as Oct-Sni-FrL-Hyp-Leu-Asp-Arg-Ile-NH2) [JAL-1248] | ≤ 5 |
| B19 | ≤ 15 |
| B20 | ≤ 5 |
| B21 | ≤ 15 |
